Assays:
[1] = biological target: T1, FcγRIIa(H) extracellular domain, His-tagged (human, UniProt P12318 34-217); assay: SPR, vs GpH7-A5/GpH7-B3/GpL16-k0 =100
T1 construct: extracellular domain; also called 2aH
T1 sequence: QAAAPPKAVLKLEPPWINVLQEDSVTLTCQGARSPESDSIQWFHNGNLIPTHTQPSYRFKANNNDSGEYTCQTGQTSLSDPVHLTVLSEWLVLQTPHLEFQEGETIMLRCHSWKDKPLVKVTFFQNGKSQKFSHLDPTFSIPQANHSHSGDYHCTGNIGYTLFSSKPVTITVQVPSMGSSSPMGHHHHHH

[2] = biological target: T2, FcγRIIIa extracellular domain, His-tagged (human, UniProt P08637 17-208); assay: SPR, vs GpH7-A5/GpH7-B3/GpL16-k0 =100
T2 construct: extracellular domain; also called 3a

[3] = biological target: T3, FcγRIIb extracellular domain, His-tagged (human, UniProt P31994 43-217); assay: SPR, vs GpH7-A5/GpH7-B3/GpL16-k0 =100
T3 construct: extracellular domain; also called 2b
T3 sequence: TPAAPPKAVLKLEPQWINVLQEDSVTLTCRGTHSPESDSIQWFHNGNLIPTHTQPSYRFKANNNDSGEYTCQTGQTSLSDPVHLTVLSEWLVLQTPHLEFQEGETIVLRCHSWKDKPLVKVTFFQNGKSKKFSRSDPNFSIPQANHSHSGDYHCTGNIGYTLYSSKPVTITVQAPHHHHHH

[4] = biological target: T4, FcγRIa extracellular domain, His-tagged (human, UniProt P12314 16-292); assay: SPR, vs GpH7-A5/GpH7-B3/GpL16-k0 =100
T4 construct: extracellular domain; also called 1a

[5] = biological target: T5, FcγRIIa(R) extracellular domain, His-tagged (human, UniProt P12318 34-217); assay: SPR, vs GpH7-A5/GpH7-B3/GpL16-k0 =100
T5 construct: extracellular domain; also called 2aR
T5 sequence: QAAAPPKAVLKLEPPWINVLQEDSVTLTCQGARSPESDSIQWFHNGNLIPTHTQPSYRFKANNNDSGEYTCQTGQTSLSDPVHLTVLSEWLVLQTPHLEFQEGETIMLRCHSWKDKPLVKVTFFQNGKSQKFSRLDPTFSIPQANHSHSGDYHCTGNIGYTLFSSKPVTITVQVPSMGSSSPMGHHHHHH

FcγRIIb = biological target: T6, FcγRIIb (human, UniProt P31994 43-217); assay: SPR, relative to GpH7-A5/GpH7-B3/GpL16-k0 =100
T6 construct: extracellular domain; also called 2b
T6 sequence: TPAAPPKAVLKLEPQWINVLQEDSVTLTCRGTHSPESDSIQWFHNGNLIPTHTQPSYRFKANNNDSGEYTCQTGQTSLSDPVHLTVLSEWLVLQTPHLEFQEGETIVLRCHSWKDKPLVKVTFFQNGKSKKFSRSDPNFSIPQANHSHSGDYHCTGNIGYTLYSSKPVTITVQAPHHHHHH

FcγRIIa(H) = biological target: T7, FcγRIIa(H) (human, UniProt P12318 34-217); assay: SPR, relative to GpH7-A5/GpH7-B3/GpL16-k0 =100
T7 construct: extracellular domain; also called 2aH
T7 sequence: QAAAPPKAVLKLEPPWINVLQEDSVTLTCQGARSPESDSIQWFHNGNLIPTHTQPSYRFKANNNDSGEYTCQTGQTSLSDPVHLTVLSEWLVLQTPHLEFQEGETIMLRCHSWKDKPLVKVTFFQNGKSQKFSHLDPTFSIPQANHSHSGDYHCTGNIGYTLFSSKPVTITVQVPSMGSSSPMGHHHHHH

FcγRIa = biological target: T8, FcγRIa (human, UniProt P12314 16-292); assay: SPR, relative to GpH7-A5/GpH7-B3/GpL16-k0 =100
T8 construct: extracellular domain; also called 1a

FcγRIIa(R) = biological target: T9, FcγRIIa(R) (human, UniProt P12318 34-217); assay: SPR, relative to GpH7-A5/GpH7-B3/GpL16-k0 =100
T9 construct: extracellular domain; also called 2aR
T9 sequence: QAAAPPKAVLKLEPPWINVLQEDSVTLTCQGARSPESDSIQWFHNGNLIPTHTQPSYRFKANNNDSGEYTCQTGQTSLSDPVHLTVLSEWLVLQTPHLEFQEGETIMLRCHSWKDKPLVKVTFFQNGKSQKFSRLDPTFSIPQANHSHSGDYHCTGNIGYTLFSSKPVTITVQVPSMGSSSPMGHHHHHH

T2 sequence (P08637 other isoform, or with tags, fused parts or gaps): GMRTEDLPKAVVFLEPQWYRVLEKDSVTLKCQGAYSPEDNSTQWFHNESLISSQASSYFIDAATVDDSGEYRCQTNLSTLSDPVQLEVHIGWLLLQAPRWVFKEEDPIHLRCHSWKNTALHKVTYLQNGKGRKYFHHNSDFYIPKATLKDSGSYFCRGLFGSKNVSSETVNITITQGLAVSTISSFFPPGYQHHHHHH
T4 sequence (P12314 other isoform, or with tags, fused parts or gaps): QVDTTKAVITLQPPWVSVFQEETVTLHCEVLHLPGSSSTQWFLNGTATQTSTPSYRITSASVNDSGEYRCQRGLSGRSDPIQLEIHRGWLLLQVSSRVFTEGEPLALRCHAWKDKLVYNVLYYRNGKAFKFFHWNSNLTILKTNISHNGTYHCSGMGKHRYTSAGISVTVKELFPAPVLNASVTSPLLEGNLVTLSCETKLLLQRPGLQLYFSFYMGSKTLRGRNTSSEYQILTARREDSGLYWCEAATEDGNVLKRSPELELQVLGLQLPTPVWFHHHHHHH
T8 sequence (P12314 other isoform, or with tags, fused parts or gaps): as above

Binder	He/Con 2aH [1]	He/Con 3a [2]	He/Con 2b [3]	He/Con 1a [4]	He/Con 2aR [5]	He/Con 2b (FcγRIIb)	He/Con 2aH (FcγRIIa(H))	He/Con 1a (FcγRIa)	He/Con 2aR (FcγRIIa(R))
GpH7-A5/GpH7-B3 variant V266_02A/GpL16-k0 (antibody, human IgG1, kappa) heavy 1: not shown heavy 2: not shown light: DIVMTQSPLSLPVTPGEPASISCQASESLVHSNRNTYLHWYLQKPGQSPQLLIYKVSNRFSGVPDRFSGSGSGTDFTLKISRVEAEDVGVYYCSQNTHVPPTFGQGTKVEIERTVAAPSVFIFPPSDEQLKSGTASVVCLLNNFYPREAKVQWKVDNALQSGNSQESVTEQDSKDSTYSLSSTLTLSKADYEKHKVYACEVTHQGLSSPVTKSFNRGEC	69.7 % of control	56.8 % of control	85.1 % of control	93.8 % of control	88.8 % of control				
GpH7-A5/GpH7-B3 variant S324_14T/GpL16-k0 (antibody, human IgG1, kappa, He Ab: heterodimerized IgG1, one H chain mutated) heavy 1: not shown heavy 2: not shown light: DIVMTQSPLSLPVTPGEPASISCQASESLVHSNRNTYLHWYLQKPGQSPQLLIYKVSNRFSGVPDRFSGSGSGTDFTLKISRVEAEDVGVYYCSQNTHVPPTFGQGTKVEIERTVAAPSVFIFPPSDEQLKSGTASVVCLLNNFYPREAKVQWKVDNALQSGNSQESVTEQDSKDSTYSLSSTLTLSKADYEKHKVYACEVTHQGLSSPVTKSFNRGEC						115%	107%	114%	93.9%
GpH7-A5/GpH7-B3 variant A327_06M/GpL16-k0 (antibody, human IgG1, kappa, He Ab: heterodimerized IgG1, one H chain mutated) heavy 1: not shown heavy 2: not shown light: DIVMTQSPLSLPVTPGEPASISCQASESLVHSNRNTYLHWYLQKPGQSPQLLIYKVSNRFSGVPDRFSGSGSGTDFTLKISRVEAEDVGVYYCSQNTHVPPTFGQGTKVEIERTVAAPSVFIFPPSDEQLKSGTASVVCLLNNFYPREAKVQWKVDNALQSGNSQESVTEQDSKDSTYSLSSTLTLSKADYEKHKVYACEVTHQGLSSPVTKSFNRGEC						74.1%	89.3%	106%	80%
GpH7-A5/GpH7-B3 variant A327_09D/GpL16-k0 (antibody, human IgG1, kappa, He Ab: heterodimerized IgG1, one H chain mutated) heavy 1: not shown heavy 2: not shown light: DIVMTQSPLSLPVTPGEPASISCQASESLVHSNRNTYLHWYLQKPGQSPQLLIYKVSNRFSGVPDRFSGSGSGTDFTLKISRVEAEDVGVYYCSQNTHVPPTFGQGTKVEIERTVAAPSVFIFPPSDEQLKSGTASVVCLLNNFYPREAKVQWKVDNALQSGNSQESVTEQDSKDSTYSLSSTLTLSKADYEKHKVYACEVTHQGLSSPVTKSFNRGEC						214%	124%	105%	159%
GpH7-A5/GpH7-B3 variant V266_06M/GpL16-k0 (antibody, human IgG1, kappa) heavy 1: not shown heavy 2: not shown light: DIVMTQSPLSLPVTPGEPASISCQASESLVHSNRNTYLHWYLQKPGQSPQLLIYKVSNRFSGVPDRFSGSGSGTDFTLKISRVEAEDVGVYYCSQNTHVPPTFGQGTKVEIERTVAAPSVFIFPPSDEQLKSGTASVVCLLNNFYPREAKVQWKVDNALQSGNSQESVTEQDSKDSTYSLSSTLTLSKADYEKHKVYACEVTHQGLSSPVTKSFNRGEC	84.8 % of control	84.9 % of control	264 % of control	96.5 % of control	161 % of control				
GpH7-A5/GpH7-B3 variant A327_19Q/GpL16-k0 (antibody, human IgG1, kappa, He Ab: heterodimerized IgG1, one H chain mutated) heavy 1: not shown heavy 2: not shown light: DIVMTQSPLSLPVTPGEPASISCQASESLVHSNRNTYLHWYLQKPGQSPQLLIYKVSNRFSGVPDRFSGSGSGTDFTLKISRVEAEDVGVYYCSQNTHVPPTFGQGTKVEIERTVAAPSVFIFPPSDEQLKSGTASVVCLLNNFYPREAKVQWKVDNALQSGNSQESVTEQDSKDSTYSLSSTLTLSKADYEKHKVYACEVTHQGLSSPVTKSFNRGEC						67.5%	79.6%	98.5%	77.7%
GpH7-A5/GpH7-B3 variant A327_13S/GpL16-k0 (antibody, human IgG1, kappa, He Ab: heterodimerized IgG1, one H chain mutated) heavy 1: not shown heavy 2: not shown light: DIVMTQSPLSLPVTPGEPASISCQASESLVHSNRNTYLHWYLQKPGQSPQLLIYKVSNRFSGVPDRFSGSGSGTDFTLKISRVEAEDVGVYYCSQNTHVPPTFGQGTKVEIERTVAAPSVFIFPPSDEQLKSGTASVVCLLNNFYPREAKVQWKVDNALQSGNSQESVTEQDSKDSTYSLSSTLTLSKADYEKHKVYACEVTHQGLSSPVTKSFNRGEC						99%	84.4%	105%	98.6%
GpH7-A5/GpH7-B3 variant V266_08L/GpL16-k0 (antibody, human IgG1, kappa) heavy 1: not shown heavy 2: not shown light: DIVMTQSPLSLPVTPGEPASISCQASESLVHSNRNTYLHWYLQKPGQSPQLLIYKVSNRFSGVPDRFSGSGSGTDFTLKISRVEAEDVGVYYCSQNTHVPPTFGQGTKVEIERTVAAPSVFIFPPSDEQLKSGTASVVCLLNNFYPREAKVQWKVDNALQSGNSQESVTEQDSKDSTYSLSSTLTLSKADYEKHKVYACEVTHQGLSSPVTKSFNRGEC	106 % of control	117 % of control	248 % of control	94.9 % of control	152 % of control				
GpH7-A5/GpH7-B3 variant A327_10E/GpL16-k0 (antibody, human IgG1, kappa, He Ab: heterodimerized IgG1, one H chain mutated) heavy 1: not shown heavy 2: not shown light: DIVMTQSPLSLPVTPGEPASISCQASESLVHSNRNTYLHWYLQKPGQSPQLLIYKVSNRFSGVPDRFSGSGSGTDFTLKISRVEAEDVGVYYCSQNTHVPPTFGQGTKVEIERTVAAPSVFIFPPSDEQLKSGTASVVCLLNNFYPREAKVQWKVDNALQSGNSQESVTEQDSKDSTYSLSSTLTLSKADYEKHKVYACEVTHQGLSSPVTKSFNRGEC						175%	108%	106%	142%
GpH7-A5/GpH7-B3 variant A327_18N/GpL16-k0 (antibody, human IgG1, kappa, He Ab: heterodimerized IgG1, one H chain mutated) heavy 1: not shown heavy 2: not shown light: DIVMTQSPLSLPVTPGEPASISCQASESLVHSNRNTYLHWYLQKPGQSPQLLIYKVSNRFSGVPDRFSGSGSGTDFTLKISRVEAEDVGVYYCSQNTHVPPTFGQGTKVEIERTVAAPSVFIFPPSDEQLKSGTASVVCLLNNFYPREAKVQWKVDNALQSGNSQESVTEQDSKDSTYSLSSTLTLSKADYEKHKVYACEVTHQGLSSPVTKSFNRGEC						141%	79%	100%	114%
GpH7-A5/GpH7-B3 variant A327_05P/GpL16-k0 (antibody, human IgG1, kappa, He Ab: heterodimerized IgG1, one H chain mutated) heavy 1: not shown heavy 2: not shown light: DIVMTQSPLSLPVTPGEPASISCQASESLVHSNRNTYLHWYLQKPGQSPQLLIYKVSNRFSGVPDRFSGSGSGTDFTLKISRVEAEDVGVYYCSQNTHVPPTFGQGTKVEIERTVAAPSVFIFPPSDEQLKSGTASVVCLLNNFYPREAKVQWKVDNALQSGNSQESVTEQDSKDSTYSLSSTLTLSKADYEKHKVYACEVTHQGLSSPVTKSFNRGEC						86.3%	67.9%	102%	80.6%
GpH7-A5/GpH7-B3 variant V266_07I/GpL16-k0 (antibody, human IgG1, kappa) heavy 1: not shown heavy 2: not shown light: DIVMTQSPLSLPVTPGEPASISCQASESLVHSNRNTYLHWYLQKPGQSPQLLIYKVSNRFSGVPDRFSGSGSGTDFTLKISRVEAEDVGVYYCSQNTHVPPTFGQGTKVEIERTVAAPSVFIFPPSDEQLKSGTASVVCLLNNFYPREAKVQWKVDNALQSGNSQESVTEQDSKDSTYSLSSTLTLSKADYEKHKVYACEVTHQGLSSPVTKSFNRGEC	107 % of control	113 % of control	160 % of control	96.1 % of control	129 % of control				
